What was measured:
[1] = tested on: DYT-TOR1A MEF EVs; assay: Quantitative LC-MS/MS proteomics of EVs from drug-treated DYT-TOR1A MEF cultures (ritonavir, salubrinal); assay type: cell-based, mouse; parameters: key to RTV Corrective Direction / RTV Corrective Direction, Grwd1 / RTV Corrective Direction, Srrm2 / RTV Corrective Direction, Rbm17 / RTV Corrective Direction, Dcaf8 / RTV Corrective Direction, Edil3 / RTV Corrective Direction, Timp3 / RTV Corrective Direction, Heatr3 / RTV Corrective Direction, Brd4 / RTV Corrective Direction, P3h4 / RTV Corrective Direction, Pacsin3 / RTV Corrective Direction, Naa50 / RTV Corrective Direction, Lpar6 / RTV Corrective Direction, Ndrg1 / RTV Corrective Direction, Kntc1 / RTV Corrective Direction, Cdk11b / RTV Corrective Direction, Sumo1 / RTV Corrective Direction, Lsm4 / RTV Corrective Direction, Hmga2 / RTV Corrective Direction, Cstf1 / RTV Corrective Direction, Tes / RTV Corrective Direction, Sbno1 / RTV Corrective Direction, Unc119b / RTV Corrective Direction, Cfdp1 / RTV Corrective Direction, Sec61b: YES = protein abundance effect opposite to DYT/WT; conditions: EV protein abundance; for RTV Corrective Direction: DYT + RTV (ritonavir) vs DYT, direction compared with DYT/WT; for DYT + RTV/DYT Cohen's d: ritonavir (RTV)-treated DYT vs DYT
[2] = tested on: WT MEF EVs; assay: Quantitative LC-MS/MS proteomics of EVs from ISRIB-treated WT MEF cultures; assay type: cell-based, mouse; parameters: key to ISRIB and DYT Parallel Direction / ISRIB and DYT Parallel Direction, Ctdsp1 / ISRIB and DYT Parallel Direction, Pcdh19 / ISRIB and DYT Parallel Direction, Tspan7 / ISRIB and DYT Parallel Direction, Myo1e / ISRIB and DYT Parallel Direction, Plpp3 / ISRIB and DYT Parallel Direction, Sh3bp4 / ISRIB and DYT Parallel Direction, Dnajc7 / ISRIB and DYT Parallel Direction, Drg1 / ISRIB and DYT Parallel Direction, Maea: YES = protein abundance effect similar to DYT/WT; conditions: EV protein abundance; for WT + ISRIB/WT Cohen's d: ISRIB-treated WT vs WT; for ISRIB and DYT Parallel Direction: WT + ISRIB vs WT, direction compared with DYT/WT

Molecule	RTV Corrective Direction [1]	DYT + RTV/DYT Cohen's d [1]	WT + ISRIB/WT Cohen's d [2]	ISRIB and DYT Parallel Direction [2]
Wars (protein, UniProt P32921 1-481, looked up) Tryptophan--tRNA ligase, …: MADMPSGESCTSPLELFNSIATQGELVRSLKAGNAPKDEIDSAVKMLLSLKMSYKAAMGEEYKAGCPPGNPTAGRNCDSDATKASEDFVDPWTVRTSSAKGIDYDKLIVQFGSSKIDKELINRIERATGQRPHRFLRRGIFFSHRDMNQILDAYENKKPFYLYTGRGPSSEAMHLGHLVPFIFTKWLQDVFNVPLVIQMSDDEKYLWKDLTLEQAYSYTVENAKDIIACGFDINKTFIFSDLEYMGQSPGFYRNVVKIQKHVTFNQVKGIFGFTDSDCIGKISFPAVQAAPSFSNSFPKIFRDRTDIQCLIPCAIDQDPYFRMTRDVAPRIGHPKPALLHSTFFPALQGAQTKMSASDPNSSIFLTDTAKQIKSKVNKHAFSGGRDTVEEHRQFGGNCEVDVSFMYLTFFLEDDDRLEQIRKDYTSGAMLTGELKKTLIDVLQPLIAEHQARRKAVTEETVKEFMTPRQLSFHFQCFCFDT	YES	4.38	−1.03	YES
Picalm (protein, UniProt Q7M6Y3 2-660, looked up) Phosphatidylinositol-binding …: SGQSLTDRITAAQHSVTGSAVSKTVCKATTHEIMGPKKKHLDYLIQCTNEMNVNIPQLADSLFERTTNSSWVVVFKSLITTHHLMVYGNERFIQYLASRNTLFNLSNFLDKSGLQGYDMSTFIRRYSRYLNEKAVSYRQVAFDFTKVKRGADGVMRTMNTEKLLKTVPIIQNQMDALLDFNVNSNELTNGVINAAFMLLFKDAIRLFAAYNEGIINLLEKYFDMKKNQCKEGLDIYKKFLTRMTRISEFLKVAEQVGIDRGDIPDLSQAPSSLLDALEQHLASLEGKKIKDSTAASRATTLSNAVSSLASTGLSLTKVDEREKQAALEEEQARLKALKEQRLKELAKKPHTSLTTAASPVSTSAGGIMTAPAIDIFSTPSSSNSTSKLPNDLLDLQQPTFHPSVHAMSAAPQGASTWGDPFSATLDAVEDAIPSLNPFLTKSSGDVHLPIASDVSTFTTRTPTHEMFVGFSPSPVAQPHSSAGLNVDFESVFGNKSTNVAVDSGGFDELGGLLKPTVASQNQSLPVAKLPPNKLVSDDLDSSLANLVGNLGIGNGTTKNDVSWSQPGEKKLTGGSNWQPKVAPTTAWSAATMNGMHFPQYAPPVMAYPATTPTGMIGYGIPPQMGSVPVMTQPTLIYSQPVMRPPNPFGPVSGAQIQFM	YES	2.85	−1.01	YES
Copg2 (protein, UniProt Q9QXK3 1-871, looked up) Coatomer subunit gamma-2: MIKKFDKKDEESGSGSNPFQHLEKSAVLQEARIFNETPINPRRCLHILTKILYLLNQGEHFGTMEATEAFFAMTRLFQSNDQTLRRMCYLTIKEMATISEDVIIVTSSLTKDMTGKEDVYRGPAIRALCRITDGTMLQAVERYMKQAIVDKVSSVASSALVSSLHMMKISYDVVKRWINEAQEAASSDNIMVQYHALGVLYHLRKNDRLAVSKMLNKFTKSGLKSQFAYCMLIRIASRLLKESEDGHESPLFDFIESCLRNKHEMVIYEAASAIIHLPNCTARELAPAVSVLQLFCSSPKPALRYAAVRTLNKVAMKHPSAVTACNLDLENLITDSNRSIATLAITTLLKTGSESSVDRLMKQISSFVSEISDEFKVVVVQAISALCHKYPRKHSVMMTFLSNMLRDDGGFEYKKAIVDCIISIVEENPESKEAGLAHLCEFIEDCEHTVLATKILHLLGKEGPRTPVPSKYIRFIFNRVVLENEAVRAAAVSALAKFGAQNESLLPSILVLLQRCMMDTDDEVRDRATFYLNVLQQRQMALNATYIFNGLTVSIPGMEKALHQYTLEPSEKPFDMKSIPLAMAPVFEQKSEITLVTPKPEKLAPSRQDIFQEQLAAIPEFMNLGPLFKSSEPVQLTEAETEYFVRCVKHMFTDHIVFQFDCTNTLNDQLLEKVTVQMEPSDSYEVLCCIPAPSLPYNQPGICYTLVRLPDEDPTAVAGTFSCTMKFTVRDCDPNTGVPDEDGYDDEYVLEDLEVTVSDHIQKILKPNFAAAWEEVGDAFEKEETFALSSTKTLEEAVNNIITFLGMQPCERSDKVPENKNSHSLYLAGVYRGGYDLLVRSRLALADGVTMQVTVRSKERTPVDVILASVG	YES	3.05	−0.44	YES
Vps26b (protein, UniProt Q8C0E2 1-336, looked up) Vacuolar protein …: MSFFGFGQSVEVEILLNDAESRKRAEHKTEDGKKEKYFLFYDGETVSGKVSLSLKNPNKRLEHQGIKIEFIGQIELYYDRGNHHEFVSLVKDLARPGEITQSQAFDFEFTHVEKPYESYTGQNVKLRYFLRATISRRLNDVVKEMDIVVHTLSTYPELNSSIKMEVGIEDCLHIEFEYNKSKYHLKDVIVGKIYFLLVRIKIKHMEIDIIKRETTGTGPNVYHENDTIAKYEIMDGAPVRGESIPIRLFLAGYELTPTMRDINKKFSVRYYLNLVLIDEEERRYFKQQEVVLWRKGDIVRKSMSHQAAIASQRFEGTTSLGEVRTPGQLSDNNSRQ	YES	3.01	−1.43	YES
Megf10 (protein, UniProt Q6DIB5 26-1147, looked up) Multiple epidermal growth …: LNLEDPNVCSHWESYSVTVQESYPHPFDQIYYTSCTDILNWFKCTRHRISYRTAYRHGEKTMYRRKSQCCPGFYESRDMCVPHCADKCVHGRCIAPNTCQCEPGWGGTNCSSACDGDHWGPHCSSRCQCKNRALCNPITGACHCAAGYRGWRCEDRCEQGTYGNDCHQRCQCQNGATCDHITGECRCSPGYTGAFCEDLCPPGKHGPHCEQRCPCQNGGVCHHVTGECSCPSGWMGTVCGQPCPEGRFGKNCSQECQCHNGGTCDAATGQCHCSPGYTGERCQDECPVGSYGVRCAEACRCVNGGKCYHVSGTCLCEAGFSGELCEARLCPEGLYGIKCDKRCPCHLDNTHSCHPMSGECGCKPGWSGLYCNETCSPGFYGEACQQICSCQNGADCDSVTGRCACAPGFKGTDCSTPCPLGRYGINCSSRCGCKNDAVCSPVDGSCICKAGWHGVDCSIRCPSGTWGFGCNLTCQCLNGGACNTLDGTCTCAPGWRGAKCEFPCQDGTYGLNCAERCDCSHADGCHPTTGHCRCLPGWSGVHCDSVCAEGRWGPNCSLPCYCKNGASCSPDDGICECAPGFRGTTCQRICSPGFYGHRCSQTCPQCVHSSGPCHHITGLCDCLPGFTGALCNEVCPSGRFGKNCAGVCTCTNNGTCNPIDRSCQCYPGWIGSDCSQPCPPAHWGPNCIHTCNCHNGAFCSAYDGECKCTPGWTGLYCTQRCPLGFYGKDCALICQCQNGADCDHISGQCTCRTGFMGRHCEQKCPAGTYGYGCRQICDCLNNSTCDHITGTCYCSPGWKGARCDQAGVIIVGNLNSLSRTSTALPADSYQIGAIAGIVVLVLVVLFLLALFIIYRHKQKRKESSMPAVTYTPAMRVINADYTIAETLPHSNGGNANSHYFTNPSYHTLSQCATSPHVNNRDRMTIAKSKNNQLFVNLKNVNPGKRGTLVDCTGTLPADWKQGGYLNELGAFGLDRSYMGKSLKDLGKNSEYNSSTCSLSSSENPYATIKDPPALLPKSSECGYVEMKSPARRDSPYAEINNSTPANRNVYEVEPTVSVVQGVFSNSGHVTQDPYDLPKNSHIPCHYDLLPVRDSSSSPKREDGGGSNSTSSNSTSSSSSSSE	YES	−2.80	1.37	YES
Ankfy1 (protein, UniProt Q810B6 2-1169, looked up) Rabankyrin-5: AEEEVAKLEKHLMLLRQEYVKLQKKLAETEKRCTLLAAQANKENSNESFISRLLAIVAGLYEQEQYSDLKIKVGDRHISAHKFVLAARSDSWSLANLSSTEEIDLSDANPEVTMTMLRWIYTDELEFREDDVFLTELMKLANRFQLQLLRERCEKGVMSLVNVRNCIRFYQTAEELNASTLMNYCAEIIASHWDDLRKEDFSSLSAQLLYKMIKSKTEYPLHKAIKVEREDVVFLYLIEMDSQLPGKLNETDHNGDLALDLALSRRLESIATTLVSHKADVDMVDKNGWSLLHKGIQRGDLFASTFLIKNGALVNAATAGAQETPLHLVALYSPKKYSADVMSEMAQIAEALLQAGANPNMQDSKGRTPLHLSIMARNDCVFSQLLQCKQLDLELKDHEGSTALWLAVQYITVSSDQSVNPFEDLPVVNGTSFDENSFAARLIQRGSNTDAPDVMTGNCLLQRAAGAGNEAAALFLATSGAHANHRNKWGETPLHTACRHGLANLTAELLQQGANPNLQTEEALPVPKESPVLMSSADSIYLQTPLHMAIAYNHPDVVSVILEQKANALHATNNLQIIPDFSLKDSRDQTVLGLALWTGMHTIAAQLLGSGASINDTMSDGQTLLHMAIQRQDSKSALFLLEHQADINVRTQDGETALQLAIKHQLPLVVDAICTRGADMSVPDEKGNPPLWLALASNLEDIASTLVRHGCDATCWGPGPSGCLQTLLHRAVDENNESTACFLIRSGCDVNSPRQPGTNGEGEEEARDGQTPLHLAASWGLEETVQCLLEFGANVNAQDAEGRTPVHVAISNQHSVIIQLLISHPNIELSVRDRQGLTPFACAMTYKNNKAAEAILKRESGAAEQVDNKGRNFLHVAVQNSDIESVLFLISVQANVNSRVQDASKLTPLHLAVQAGSEIIVRNLLLAGAKVNELTKHRQTALHLAAQQDLPTICSVLLENGVDFAAVDENGNNALHLAVMHGRLNNIRALLTECTVDAEAFNLRGQSPLHILGQYGKENAAAIFDLFLECMPEYPLDKPDAEGNTVLLLAYMKGNANLCRAIVRSGVRLGVNNNQGVNIFNYQVATKQLLFRLLDMLSKEPPWCDGSNCYECTAKFGVTTRKHHCRHCGRLLCHKCSTKEIPIIKFDLNKPVRVCNICFDVLTLGGVS	YES	2.86	−1.45	YES
